Measurements taken from CN117024592A (WEST CHINA HOSPITAL SICHUAN UNIV, dated 2023).
Values belong to the binder of their own block, whether it stands above or below them.

What was measured:
人源B7H3(细胞表面表达) [1] = target: T1, 人源B7H3(细胞表面表达) (human, UniProt Q5ZPR3 29-534); assay: flow cytometry on CHO cells stably expressing B7H3
T1 construct: whole, on cells; in the ADCC assay the protein is the endogenous B7H3 of A375 cells; also called CD276; 人B7H3
T1 sequence (looked up): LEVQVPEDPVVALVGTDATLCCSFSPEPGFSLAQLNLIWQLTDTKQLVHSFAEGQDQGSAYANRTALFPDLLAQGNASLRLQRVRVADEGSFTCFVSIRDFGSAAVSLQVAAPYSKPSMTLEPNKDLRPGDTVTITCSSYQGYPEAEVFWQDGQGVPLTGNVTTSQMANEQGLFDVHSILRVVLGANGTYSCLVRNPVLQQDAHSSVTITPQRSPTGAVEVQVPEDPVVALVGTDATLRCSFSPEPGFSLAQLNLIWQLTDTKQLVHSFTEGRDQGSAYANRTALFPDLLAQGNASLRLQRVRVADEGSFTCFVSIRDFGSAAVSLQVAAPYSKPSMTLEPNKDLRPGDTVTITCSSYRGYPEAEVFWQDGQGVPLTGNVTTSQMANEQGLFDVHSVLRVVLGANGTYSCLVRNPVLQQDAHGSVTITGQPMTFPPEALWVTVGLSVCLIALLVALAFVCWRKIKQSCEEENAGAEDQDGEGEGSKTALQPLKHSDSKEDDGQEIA

B7H3-His重组蛋白 = target: T2, B7H3-His重组蛋白 (human, UniProt Q5ZPR3 29-466); assay: SPR (Biacore), B7H3-His amine-coupled to CM5 chip, antibody as analyte
T2 construct: extracellular domain; also called 携带His标签的重组B7H3蛋白; not shown: C-terminal His tag
T2 sequence (looked up): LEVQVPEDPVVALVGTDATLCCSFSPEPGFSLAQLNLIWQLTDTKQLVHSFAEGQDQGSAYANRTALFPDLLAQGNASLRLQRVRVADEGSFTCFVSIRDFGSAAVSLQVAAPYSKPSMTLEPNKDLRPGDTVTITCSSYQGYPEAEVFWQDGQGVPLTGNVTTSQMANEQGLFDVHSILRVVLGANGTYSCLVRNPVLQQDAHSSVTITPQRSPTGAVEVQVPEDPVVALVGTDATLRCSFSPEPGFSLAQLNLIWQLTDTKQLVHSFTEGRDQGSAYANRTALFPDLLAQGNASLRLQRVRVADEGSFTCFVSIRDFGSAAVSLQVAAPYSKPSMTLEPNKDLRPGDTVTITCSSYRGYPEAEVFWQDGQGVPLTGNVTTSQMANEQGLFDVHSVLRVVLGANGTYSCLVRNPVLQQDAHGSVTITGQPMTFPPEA

鼠源B7H3(稳定表达细胞株mB7H3-CHO) = target: T3, 鼠源B7H3(稳定表达细胞株mB7H3-CHO) (mouse, UniProt Q8VE98 29-316); assay: flow cytometry, hybridoma supernatant on mB7H3-CHO cells
T3 construct: whole, on cells; also called 鼠B7H3蛋白
T3 sequence (looked up): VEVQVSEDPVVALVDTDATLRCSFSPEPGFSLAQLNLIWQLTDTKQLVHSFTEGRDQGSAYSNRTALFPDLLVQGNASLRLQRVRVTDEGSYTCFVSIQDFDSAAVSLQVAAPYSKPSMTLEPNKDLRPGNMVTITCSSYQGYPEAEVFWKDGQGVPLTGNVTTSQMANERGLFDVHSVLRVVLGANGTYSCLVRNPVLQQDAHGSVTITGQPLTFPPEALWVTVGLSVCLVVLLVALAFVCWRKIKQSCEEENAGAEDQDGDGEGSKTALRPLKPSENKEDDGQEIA

人源B7H3(细胞表面表达) [2] = target: T1, 人源B7H3(细胞表面表达); assay: flow cytometry, hybridoma supernatant on cells expressing B7H3

binding result (人源B7H3(细胞表面表达) [1]): binds | binding result (B7H3-His重组蛋白): binds
B1: 人源化单抗huJ65-2 (antibody, V domains shown)
VH: EVQLVESGGGLVQPGGSLRLSCEASGFTFSSHGMSWVRQAPGKGLEWVATISGGGRYSYYPDNIQGRFTISRDNAKNSLYLQMNSLRAEDTAVYYCARHWDGYLDYWGQGTLVTVSS
VL: DIQMTQSPSSLSASVGDRVTITCRPSENIYSYLAWYQQKPGKAPKLLVYNAKTLTEGAPSRFSGSGSGTDFTLTISSLQPEDFATYYCQHHYGPPPYTFGQGTKVEIK
notes: also called hJ65-2; 人源化抗体2

binding result (鼠源B7H3(稳定表达细胞株mB7H3-CHO)): no binding | binding result (人源B7H3(细胞表面表达) [2]): binds | binding result (B7H3-His重组蛋白): binds
B2: 鼠源单克隆抗体J65(杂交瘤克隆J65上清) (antibody, V domains shown)
VH: EVQLQESGGDLVKPGGSLKLSCEASGFTFSSHGMSWIRQTPDKRLDWVATISGGGRYSYYPDNIQGRFTISRDNAKDTLYLQMSSLQSEDTALYYCARHWDGYLDYWGQGTTLTVSS
VL: DIVMTQTPASLSASVGETVTITCRPSENIYSYLAWYQQKQGKSPQLLVYNAKTLTEGAPSRFSGSGSGTQFSLKINSLQPEDFGIYYCQHHYGPPPYTFGGGTKVEIK
notes: Mouse monoclonal antibody as secreted by the hybridoma (supernatant used in flow cytometry); also called 杂交瘤J65; 单抗J65

binding result (人源B7H3(细胞表面表达) [1]): binds
B3: 嵌合抗体J65(cJ65) (antibody, V domains shown)
VH: B2 VH
VL: B2 VL
notes: also called cJ65-1

binding result (人源B7H3(细胞表面表达) [1]): binds
B4: 重组鼠源单抗J65(mJ65) (antibody, V domains shown)
VH: B2 VH
VL: B2 VL
notes: also called 重组鼠单抗mJ65
